In patent publication US20230183713A1, “SITE-SPECIFIC RECOMBINASES FOR EFFICIENT AND SPECIFIC GENOME EDITING” (TECHNISCHE UNIVERSITÄt DRESDEN, published 2023):
Positions count from the first letter of the chain named. Numbers in names are those of the source.

T1: Cre recombinase monomer with Q311R mutation
T1 chain: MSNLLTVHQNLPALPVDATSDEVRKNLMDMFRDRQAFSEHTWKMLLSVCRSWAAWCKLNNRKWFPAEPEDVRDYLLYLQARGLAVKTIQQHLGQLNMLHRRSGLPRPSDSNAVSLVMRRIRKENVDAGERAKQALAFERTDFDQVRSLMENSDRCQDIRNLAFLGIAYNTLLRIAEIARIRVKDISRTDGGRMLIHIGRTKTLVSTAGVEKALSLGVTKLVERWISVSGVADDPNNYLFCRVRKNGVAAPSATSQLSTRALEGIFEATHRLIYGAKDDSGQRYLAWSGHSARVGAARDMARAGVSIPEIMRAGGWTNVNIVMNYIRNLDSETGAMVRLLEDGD

T2: Cre recombinase monomer with K201R mutation
T2 chain: T1 chain with K201R, R311Q

T3: Cre recombinase monomer with W315M mutation
T3 chain: T1 chain with R311Q, W315M

T4: Cre recombinase monomer with Y324T mutation
T4 chain: T1 chain with R311Q, Y324T

T5: Cre recombinase monomer with E176H mutation
T5 chain: T1 chain with E176H, R311Q

T6: Cre recombinase monomer with E176V mutation
T6 chain: T1 chain with E176V, R311Q

T7: Cre recombinase monomer with W315I mutation
T7 chain: T1 chain with R311Q, W315I

T8: Cre recombinase monomer with Y324F mutation
T8 chain: T1 chain with R311Q, Y324F

B1: Cre recombinase monomer with E176Y mutation (protein)
chain: T1 chain with E176Y, R311Q
B2: Cre recombinase monomer with R292P mutation (protein)
chain: T1 chain with R292P, R311Q
B3: Cre recombinase monomer with R173Y mutation (protein)
chain: T1 chain with R173Y, R311Q
B4: Cre recombinase monomer with K201A mutation (protein)
chain: T1 chain with K201A, R311Q
B5: Cre recombinase monomer with K201W mutation (protein)
chain: T1 chain with K201W, R311Q
B6: Cre recombinase monomer with R292M mutation (protein)
chain: T1 chain with R292M, R311Q
B7: Cre recombinase monomer with R292S mutation (protein)
chain: T1 chain with R292S, R311Q
B8: Cre recombinase monomer with K201M mutation (protein)
chain: T1 chain with K201M, R311Q
B9: Cre recombinase monomer with R173A mutation (protein)
chain: T1 chain with R173A, R311Q
B10: Cre recombinase monomer with E176L mutation (protein)
chain: T1 chain with E176L, R311Q
B11: Cre recombinase monomer with K201L mutation (protein)
chain: T1 chain with K201L, R311Q
B12: Cre recombinase monomer with R173P mutation (protein)
chain: T1 chain with R173P, R311Q
B13: Cre recombinase monomer with R173K mutation (protein)
chain: T1 chain with R173K, R311Q
B14: Cre recombinase monomer with R292V mutation (protein)
chain: T1 chain with R292V, R311Q
B15: Cre recombinase monomer with R292Q mutation (protein)
chain: T1 chain with R292Q, R311Q
B16: Cre recombinase monomer with R173V mutation (protein)
chain: T1 chain with R173V, R311Q
B17: Cre recombinase monomer with R292W mutation (protein)
chain: T1 chain with R292W, R311Q
B18: Cre recombinase monomer with R173D mutation (protein)
chain: T1 chain with R173D, R311Q
B19: Cre recombinase monomer with K201V mutation (protein)
chain: T1 chain with K201V, R311Q
B20: Cre recombinase monomer with H289K mutation (protein)
chain: T1 chain with H289K, R311Q
B21: Cre recombinase monomer with R173E mutation (protein)
chain: T1 chain with R173E, R311Q
B22: Cre recombinase monomer with R292L mutation (protein)
chain: T1 chain with R292L, R311Q
B23: Cre recombinase monomer with E176M mutation (protein)
chain: T1 chain with E176M, R311Q
B24: Cre recombinase monomer with R292N mutation (protein)
chain: T1 chain with R292N, R311Q

Target: T1, Cre recombinase monomer with Q311R …
In the case of B1, the “Median dimer activity (recombination on loxP)” value (“Median dimer activity” for short) is reported as 79%. With B2 the “Median dimer activity” value was 76%. For B3, the “Median dimer activity” value was 92%. For B4, the “Median dimer activity” value was 95%. In the case of B5, the “Median dimer activity” value is reported as 95%. B6 was tested, and the “Median dimer activity” value was 96%. For B7, the “Median dimer activity” value was 97%. In the case of B8, the “Median dimer activity” value is reported as 93%. In the case of B9, the “Median dimer activity” value is reported as 93%. With B10 the “Median dimer activity” value was 40%. B11 was tested, and the “Median dimer activity” value was 92%. With B12 the “Median dimer activity” value was 94%. B13 was tested, and the “Median dimer activity” value was 84%. With B14 the “Median dimer activity” value was 95%. With B15 the “Median dimer activity” value was 70%. For B16, the “Median dimer activity” value was 92%. With B17 the “Median dimer activity” value was 88%. B18 was tested, and the “Median dimer activity” value was 89%. For B19, the “Median dimer activity” value was 84%. In the case of B20, the “Median dimer activity” value is reported as 95%. In the case of B21, the “Median dimer activity” value is reported as 80%. In the case of B22, the “Median dimer activity” value is reported as 93%. B23 was tested, and the “Median dimer activity” value was 82%. In the case of B24, the “Median dimer activity” value is reported as 95%.

Target: T2, Cre recombinase monomer with K201R …
With B1 the “Median dimer activity” value was 39%. In the case of B4, the “Median dimer activity” value is reported as 64%. B8 was tested, and the “Median dimer activity” value was 76%. B23 was tested, and the “Median dimer activity” value was 35%.

Target: T3, Cre recombinase monomer with W315M …
With B5 the “Median dimer activity” value was 49%. For B19, the “Median dimer activity” value was 64%. For B20, the “Median dimer activity” value was 74%.

Target: T4, Cre recombinase monomer with Y324T …
For B5, the “Median dimer activity” value was 68%. In the case of B11, the “Median dimer activity” value is reported as 25%. B12 was tested, and the “Median dimer activity” value was 47%.

Target: T5, Cre recombinase monomer with E176H …
With B18 the “Median dimer activity” value was 29%. With B21 the “Median dimer activity” value was 32%.

Target: T6, Cre recombinase monomer with E176V …
B3 was tested, and the “Median dimer activity” value was 35%. In the case of B16, the “Median dimer activity” value is reported as 53%. B18 was tested, and the “Median dimer activity” value was 53%.

Target: T7, Cre recombinase monomer with W315I …
B6 was tested, and the “Median dimer activity” value was 42%.

Target: T8, Cre recombinase monomer with Y324F …
With B19 the “Median dimer activity” value was 48%.
